According to the RNAGym collection of RNA variant scans (doi:10.1021/acssynbio.7b00057):

B1: Pistol ribozyme (parent)
chain: GGGUCGUUGUUCCAUAAUCGCGUGGAUAUGGCACGCAAGUUUCUACCGGGCACCGUAAAUGUCCGACUGGAGCCGUUCGGGCGGCUAUAAACAGACCUCAGGCCCGAAGCGUGGCGGCACCUGCCGCCGGUGGUAAAAAAGAUCGGAAGAGCACACGUCU

Variants of: B1
Test: aptazyme ON/OFF ratio, guanine; higher = stronger switching; co-transcriptional cleavage with and without guanine

Variant | aptazyme ON/OFF ratio
U7G U8G G9C U10A U11C C12G C13G | 1.05
U7G U8G G9C U10A U11C C12G C13A | 1.06
U7G U8G G9C U10A U11C C12G C13U | 1.06
U7G U8G G9A U11G C12A C13U | 1.18
U7G U8G G9A U11G C12A C13A | 0.999
U7G U8G G9A U11G C12A C13G | 1.09
U7G U8G G9A U10C U11C C12U C13U | 1.13
U7G U8G G9A U10C U11C C12U C13A | 1.04
U7G U8G G9A U10C U11C C12U C13G | 1.36
U7G U8G G9C C13G | 1.16
U7G U8G G9C C13A | 1.42
U7G U8G G9C C13U | 1.47
U7G U8G G9A U10G C13U | 1.27
U7G U8G G9A U10G C13G | 1.11
U7G U8G G9A U10G C13A | 1.39
U7G U8G G9A U11C | 1.54
U7G U8G G9A U11A | 2.46
U7G U8G G9A U11G | 1.91
U7G U8G G9C U10C U11C C12A C13A | 1.05
U7G U8G G9C U10C U11C C12A C13G | 1.14
U7G U8G G9C U10C U11C C12A C13U | 1.1
U7G U8G G9A U10A U11C | 1.02
U7G U8G G9A U10A U11G | 2.19
U7G U8G G9C U10C U11A C12A C13G | 1.23

Variant | aptazyme ON/OFF ratio
U7G U8G G9C U10C U11A C12A C13A | 1.33
U7G U8G G9C U10C U11A C12A C13U | 1.12
U7G U8G G9A U11C C12U C13A | 1.31
U7G U8G G9A U11C C12U C13G | 1.44
U7G U8G G9A U11C C12U C13U | 1.02
U7G U8G G9A U10A U11A C12U C13U | 1.24
U7G U8G G9A U10A U11A C12U C13G | 1.13
U7G U8G G9A U10A U11A C12U C13A | 1.03
U7G U8G G9C U10C U11A C12U | 1.3
U7G U8G G9C U10C U11A C12G | 1.32
U7G U8G G9C U10C U11A C12A | 1.3
U7G U8G G9A U10C U11A C13U | 1.2
U7G U8G G9A U10C U11A C13G | 1.1
U7G U8G G9A U10C U11A C13A | 1.2
U7G U8G G9A U10G U11A C12G C13G | 1.18
U7G U8G G9A U10G U11A C12G C13A | 1.13
U7G U8G G9A U10G U11A C12G C13U | 1.26
U7G U8G G9A U10C C12A C13U | 1.32
U7G U8G G9A U10C C12A C13G | 1.14
U7G U8G G9A U10C C12A C13A | 1.13
U7G U8G G9A U10G U11G C12A C13G | 1.15
U7G U8G G9A U10G U11G C12A C13A | 1.1
U7G U8G G9A U10G U11G C12A C13U | 1.17
U7G U8G G9A U10G U11C C13G | 1.08

Variant | aptazyme ON/OFF ratio
U7G U8G G9A U10G U11C C13A | 1.15
U7G U8G G9A U10G U11C C13U | 1.08
U7G U8G G9A U10C U11C C12U | 1.1
U7G U8G G9A U10C U11C C12A | 1.22
U7G U8G G9A U10C U11C C12G | 1.21
U7G U8G G9A U10G U11A C12U C13G | 1.21
U7G U8G G9A U10G U11A C12U C13A | 1.15
U7G U8G G9A U10G U11A C12U C13U | 1.07
U7G U8G G9C U10C U11A C12U C13A | 1.36
U7G U8G G9C U10C U11A C12U C13G | 1.32
U7G U8G G9C U10C U11A C12U C13U | 1.23
U7G U8G G9C U10A | 1.58
U7G U8G G9C U10C | 2.35
U7G U8G G9C U10A C13A | 1.05
U7G U8G G9C U10A C13G | 1.01
U7G U8G G9C U10A C13U | 1.03
U7G U8G G9C U10A C12U | 1.02
U7G U8G G9C U10A C12G | 1.03
U7G U8G G9C U10A C12A | 1.03
U7G U8G G9A U10G C12G C13G | 1.16
U7G U8G G9A U10G C12G C13U | 1.55
U7G U8G G9A U10G C12G C13A | 1.11
U7G U8G G9A U10G C12A C13U | 1.32
U7G U8G G9A U10G C12A C13G | 1.07

Variant | aptazyme ON/OFF ratio
U7G U8G G9A U10G C12A C13A | 1.1
U7G U8G G9A U10G U11C C12U C13U | 1.29
U7G U8G G9A U10G U11C C12U C13G | 1.27
U7G U8G G9A U10G U11C C12U C13A | 1.07
U7G U8G G9A U10C U11A C12G C13G | 1.18
U7G U8G G9A U10C U11A C12G C13A | 1.04
U7G U8G G9A U10C U11A C12G C13U | 1.17
U7G U8G G9A U10A U11G C12A | 1.07
U7G U8G G9A U10A U11G C12U | 1.22
U7G U8G G9A U10A U11G C12G | 1.43
U7G U8G G9A U11C C13G | 1.12
U7G U8G G9A U11C C13U | 1.28
U7G U8G G9A U11C C13A | 1.25
U7G U8G G9A U10A U11G C12U C13U | 1.35
U7G U8G G9A U10A U11G C12U C13G | 1.12
U7G U8G G9A U10A U11G C12U C13A | 1.13
U7G U8G G9A U10C U11G C12A C13G | 1.14
U7G U8G G9A U10C U11G C12A C13U | 1.19
U7G U8G G9A U10C U11G C12A C13A | 1.11
U7G U8G G9C U10C C12G C13G | 1.09
U7G U8G G9C U10C C12G C13A | 1.22
U7G U8G G9C U10C C12G C13U | 1.27
U7G U8G G9A U11G C13A | 1.26
U7G U8G G9A U11G C13G | 1.17

Variant | aptazyme ON/OFF ratio
U7G U8G G9A U11G C13U | 1.3
U7G U8G G9A U10G U11A C13A | 1.11
U7G U8G G9A U10G U11A C13G | 1.11
U7G U8G G9A U10G U11A C13U | 1.12
U7G U8G G9A U10A U11C C13G | 1.06
U7G U8G G9A U10A U11C C13A | 1.08
U7G U8G G9A U10A U11C C13U | 1.05
U7G U8G G9C U10A C12U C13U | 1.04
U7G U8G G9C U10A C12U C13A | 1.01
U7G U8G G9C U10A C12U C13G | 1.03
U7G U8G G9C C12G | 1.47
U7G U8G G9C C12U | 1.94
U7G U8G G9C C12A | 1.22
U7G U8G G9A U10C C12A | 1.46
U7G U8G G9A U10C C12G | 1.28
U7G U8G G9A U10C C12U | 1.59
U7G U8G G9A U11A C12U | 1.44
U7G U8G G9A U11A C12G | 1.12
U7G U8G G9A U11A C12A | 1.38
U7G U8G G9A U10A U11G C12A C13G | 1.03
U7G U8G G9A U10A U11G C12A C13A | 1.13
U7G U8G G9A U10A U11G C12A C13U | 1.1
U7G U8G G9A U11C C12G C13G | 1.11
U7G U8G G9A U11C C12G C13U | 1.35

Variant | aptazyme ON/OFF ratio
U7G U8G G9A U11C C12G C13A | 1.21
U7G U8G G9A U10G | 1.83
U7G U8G G9A U10C | 3.59
U7G U8G G9A U10C U11G C12G C13A | 1.1
U7G U8G G9A U10C U11G C12G C13U | 1.08
U7G U8G G9A U10C U11G C12G C13G | 1.14
U7G U8G G9A U10C U11G C12A | 1.15
U7G U8G G9A U10C U11G C12G | 1.53
U7G U8G G9A U10C U11G C12U | 1.34
U7G U8G G9C U10A U11G C12G | 1.08
U7G U8G G9C U10A U11G C12U | 1.12
U7G U8G G9C U10A U11G C12A | 1.05
U7G U8G G9A U10C U11A C12U C13U | 1.08
U7G U8G G9A U10C U11A C12U C13A | 1.06
U7G U8G G9A U10C U11A C12U C13G | 1.08
U7G U8G G9C U10C C12A C13A | 1.29
U7G U8G G9C U10C C12A C13G | 1.27
U7G U8G G9C U10C C12A C13U | 1.25
U7G U8G G9A U10A U11G C12G C13G | 1.15
U7G U8G G9A U10A U11G C12G C13A | 1.14
U7G U8G G9A U10A U11G C12G C13U | 1.06
U7G U8G G9A U10A U11A C13G | 1.14
U7G U8G G9A U10A U11A C13U | 1.18
U7G U8G G9A U10A U11A C13A | 1.16

Variant | aptazyme ON/OFF ratio
U7G U8G G9C U10C U11C C12G C13G | 1.06
U7G U8G G9C U10C U11C C12G C13A | 1.05
U7G U8G G9C U10A U11G C12G C13G | 1.07
U7G U8G G9C U10A U11G C12G C13A | 1.1
U7G U8G G9C U10A U11G C12G C13U | 1.06
U7G U8G G9A U11G C12G C13A | 1.12
U7G U8G G9A U11G C12G C13G | 1.12
U7G U8G G9A U11G C12G C13U | 1.23
U7G U8G G9C U10C U11A C12G C13A | 1.28
U7G U8G G9C U10C U11A C12G C13G | 1.24
U7G U8G G9C U10C U11A C12G C13U | 1.24
U7G U8G G9A U10A U11C C12U C13A | 1.08
U7G U8G G9A U10A U11C C12U C13G | 1.17
U7G U8G G9A U10A U11C C12U C13U | 1.15
U7G U8G G9A U10C U11C C12G C13A | 1.16
U7G U8G G9A U10C U11C C12G C13U | 1.12
U7G U8G G9A U10C U11C C12G C13G | 1.03
U7G U8G G9C U10A U11C C13U | 1.07
U7G U8G G9C U10A U11C C13G | 1.05
U7G U8G G9C U10A U11C C13A | 1.07
U7G U8G G9A U10C U11C C12A C13G | 1.2
U7G U8G G9A U10C U11C C12A C13U | 1.11
U7G U8G G9A U10C U11C C12A C13A | 1.19
